From the supplement of paper PMC9170038

Test system: MS2 coat protein
Assay: apparent KD of MS2 coat protein; designed switch direction (-1 OFF switch, 1 ON switch): 1; higher = weaker reporter binding
Procedure, shortened: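 Normalised cluster fluorescence was curve-fitted, and each design's median over clusters is its apparent KD. Before this, SNAP-549-labelled MS2 coat protein was titrated from 0.7 or 1.5 nM, doubling to 3 µM, over RNA switches transcribed on Illumina chips by stalled E. coli RNA polymerase. Titrations had no input, 200 uM small-molecule ligand, or an oligonucleotide input, and steps lasted 0.8–1.5 h (lowest) to 10–20 min (highest).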

[1] = input ligand: microRNA oligo, concentration not stated
[2] = Eterna round: R95, input ligand: FMN 200 uM
[3] = Eterna round: R95, input ligand: microRNA oligo, concentration not stated
[4] = Eterna round: R95, input ligand: none

| Sequence | apparent KD of MS2 coat protein (input ligand: FMN 200 uM) [nM] | apparent KD of MS2 coat protein [1] [nM] | apparent KD of MS2 coat protein (input ligand: none) [nM] | apparent KD of MS2 coat protein [2] [nM] | apparent KD of MS2 coat protein [3] [nM] | apparent KD of MS2 coat protein [4] [nM] |
| --- | --- | --- | --- | --- | --- | --- |
| UGGCUCAGACGAGGAUAUAUGUGAUCACAUGAGGAUCACCCAUGUCUCGAGCUUCGGCUCGAGACAUAGAAGGCGUCUGAGCCU [SSNG2/3-A3] (Eterna round: R96, puzzle: Same State NG 2) | 512 | 12.3 | 17.8 |  |  |  |
| UUGUUUCGUCAUUAACAUGAGGAUCACCCAUGUCUUGGCCCAGAGGAUAUGCAUGUUUGAUUGUAGCAGAAGGCUGAUUGUUGU [JR_SSNG3_Sub031] (Eterna round: R96, puzzle: Same State NG 3) | 25.9 | 34.9 | 42.5 |  |  |  |
| UUCUCACAUGAGGAUCACCCAUGUGAGCCUCUGUGAGGAUAUCCGACAUAAUUAAGUGAAGGAGAAGGUACACGAG [Malean] (puzzle: Same State 1) |  |  |  | 24.8 | 30.2 | 19.5 |
| AUAGUUGCCGAAGGAUAUGAUGAGGAUCACCCAUCAGAAGGUUGGCUAUUGGGUGGACAUGAGGAUCACCCAUGUCCUUUGGUU (Eterna round: R96, puzzle: Same State NG 1) | 58.2 | 68.9 | 113 |  |  |  |
| UGGUACAUGGGAGGAUAUGGAGUGAUGACAUGAGGAUCACCCAUGUUAUAAAUGCCGAGAGGCAACUAGAAGGCCCAUGUACCU [JL SSNG1 3.95] (Eterna round: R96, puzzle: Same State NG 2) | 23.2 | 149 | 149 |  |  |  |
| UUGCUCGUGUGAGGAUAUGCCGCCGUUUCGGCUGCAGAAGGUACUAUAAUACAUGAGGAUCACCCAUGUCUCUGUUGUUUCGUG [salish99_SSNG1_r04_932] (Eterna round: R96, puzzle: Same State NG 1) |  | 23.7 |  |  |  |  |
| CUCAAACAUGAGGAUCACCCAUGUGUUGUCAUGGGAGGAUAUCUAAGUUCGUUGUAGUCGGGAGAAGGCCUAUGUC [× ×•×ª×• ×ž×“×™× ×” × ×—×ª-11] (puzzle: Same State 1) |  |  |  |  | 182 |  |
| AACAAUCUAUCUGAGGAUAUCAUGAAAUAAACAUGAGGAUCACCCAUGUGCAGGAAAUCUGCAUAUGAGAAGGCAGAUAGAUUGA [salish99_ss2_r3_043] (Eterna round: R96, puzzle: Same State 2) |  | 672 |  |  |  |  |
| AGGCUCAGACGAGGAUAUGAUCAUGGCGCUUCGGCGCAUACAUGAGGAUCACCCAUGUAAAGUGAUCAGAAGGCGUCUGAGCCA [SSNG2/7-A1] (Eterna round: R96, puzzle: Same State NG 2) | 12.3 | 14.5 | 14.2 |  |  |  |
| GGCCUGGGUCAAGGAUAUGCUACCGUUUCGGUAGCAGAAGGUGAUCACAUGAGGAUCACCCAUGUUUACGCGAAGACGCGCGCC (Eterna round: R96, puzzle: Same State NG 1) | 526 | 59.3 | 405 |  |  |  |
| GGAGCCAAGGCAGGAUAUUCAUAUUAAAUAACAUGAGGAUCACCCAUGUUGGCCAGAAGGCCAUGGGAGAAGGGCCAUGGCUCG [Xeonanis - 13 mod22] (Eterna round: R96, puzzle: Same State NG 2) | 18.8 | 53.1 | 87.2 |  |  |  |
| GGAUGAUUAACAGGAUAUCAUUUGUAAAUUGGUUGAGAAGGGUUAAUGAUUUAAACGACCUGUUACAUGAGGAUCACCCAUGUU [SameState NG1 #1] (Eterna round: R96, puzzle: Same State NG 1) |  | 45.6 |  |  |  |  |
| GUAGCAUACCGAGGAUAUUCAUAUUAUACAUGAGGAUCACCCAUGUGGCCACAUUAGUGGCCUUGGGAGAAGGCGGAAUGCUAC [Xeonanis - 20 Mod37] (Eterna round: R96, puzzle: Same State NG 2) | 99.2 | 290 | 669 |  |  |  |
| GGAGCCGGCACCGAGGAUAUUUAUAUUAAAACAUGAGGAUCACCCAUGUAGGCCAGAAGGCCUUGGGAGAAGGCGGAUCGGCUCG [Xeonanis - 5] (puzzle: Same State 2) |  |  |  | 16.4 | 75.7 | 79.6 |
| GCAUCACAUGAGGAUCACCCAUGUCUUCGGAGCCGAGGAUAUGGUCACUGUAAACAGUGGCCAGAAGGCGGGAUGC [SS1 - Son of Teenbexe v1] (puzzle: Same State 1) |  |  |  | 30.2 | 41.5 | 61.3 |
| UCUUGGUUUUUGCUCGUUUUUUGUGUUGAACAUGAGGAUCACCCAUGUAUUGUACGGUCCAAUUUAGUAGUGGUCCG [JMF 25] (puzzle: Sensor for hsa-mir-208a) |  |  |  | 26.6 | 15.3 | 26.2 |

| Sequence | apparent KD of MS2 coat protein (input ligand: FMN 200 uM) [nM] | apparent KD of MS2 coat protein [1] [nM] | apparent KD of MS2 coat protein (input ligand: none) [nM] | apparent KD of MS2 coat protein [2] [nM] | apparent KD of MS2 coat protein [3] [nM] | apparent KD of MS2 coat protein [4] [nM] |
| --- | --- | --- | --- | --- | --- | --- |
| AGAGGAGGAGCAGGAUAUGCGAAGAAGAACGUGGUAGAAGGGCUCAUGCGAUGACAUGAGGAUCACCCAUGUACCUCGCGAGGA [AK SSNG1-V2-9] (Eterna round: R96, puzzle: Same State NG 1) | 414 | 130 | 186 |  |  |  |
| GAGGGACAGACCAACAUGAGGAUCACCCAUGUCCUCGCAGGUCAGGAUAUCCGUCCAACAGGCAAGGAGAAGGGACGGUGAACC (Eterna round: R96, puzzle: Same State NG 3) | 522 | 1200 | 724 |  |  |  |
| AUAGUUUCCGAAGGAUAUGAUGAGGAUCACCCAUCAGAAGGUUGGCUAUUGGGCGGACAUGAGGAUCACCCAUGUCUUUCGGUU (Eterna round: R96, puzzle: Same State NG 1) | 84.7 | 76.8 | 101 |  |  |  |
| CCGCCGGGAACCCGGCGGAAACAUGAGGAUCACCCAUGUACACAGGAUAUCGUGACAUUAACAAACGAGAAGGGUGGCCGAGAC [Atre] (Eterna round: R96, puzzle: Same State NG 3) | 345 | 91.6 | 137 |  |  |  |
| AACAAUCUAUCUGAGGAUAUCAUGAAAUAAACAUGAGGAUCACCCAUGUGCAGGAAAUCUGCAUAUGAGAAGGCAGAUAGAUUGA [salish99_ss2_r3_043] (puzzle: Same State 2) |  |  |  | 33.9 | 1240 | 4600 |
| GGUAGGUUACUACCAAUCACAUGAGGAUCACCCAUGUUGUGGGAGGAUAUGGUACCUAUUUGGUACCAGAAGGCCUUAUUAAUU [Fiskers NG3ss - 11] (Eterna round: R96, puzzle: Same State NG 3) | 74.8 | 55.6 | 85.2 |  |  |  |
| AUGAUUUAUGCAGGAUAUGAUUAACAUGAGGAUCACCCAUGUGGUGUUGUGAGUAAGGAGAGUGAUCAGAAGGGCAUUUUUUUU [JMF's solution 71] (Eterna round: R96, puzzle: Same State NG 2) | 1170 | 402 | 506 |  |  |  |
| AUUCUUAAUGCAGGAUAUGAUUAACAUGAGGAUCACCCAUGUGGUGUUGUGAGUAAGGAGAGUGAUCAGAAGGGCAUUUUUUUU [JMF's solution 32] (Eterna round: R96, puzzle: Same State NG 2) | 316 | 271 | 210 |  |  |  |
| UUAUUAUUUACAUGAGGAUCACCCAUGUUUUUAUGUCAGAGAUAGGAUAUAGUUUUCUCGUUUUUCUAGAAGGAUCUUUUUAUU [JR_SSNG3_Sub085] (Eterna round: R96, puzzle: Same State NG 3) | 18.6 | 17 | 22.8 |  |  |  |
| UCAAGCGAGAGGCUCGUCUUAUGUUUGGUACAUGAGGAUCACCCAUGUUAGGGACGAUUUAGUUAGAUGGAAUGGAG [JR_SHM208A_Sub034] (puzzle: Sensor for hsa-mir-208a) |  |  |  | 57.3 | 148 | 69.6 |
| CCGGUAAAUGGAGGAUAUGGAGCCUUAUUGGCUCCAGAAGGCUAACAUGAGGAUCACCCAUGUAUACCGGCGGUCAAUAGACCG [Eli NG1ss - 64] (Eterna round: R96, puzzle: Same State NG 1) | 11 | 16.3 | 21.8 |  |  |  |
| UUACUCAUGUAAGGAUAUGCAGCCGUUUCGGCUGCAGAAGGUACUAUAAUACAUGAGGAUCACCCAUGUCUCUAUUAUUUAGUG [salish99_SSNG1_r04_922] (Eterna round: R96, puzzle: Same State NG 1) |  | 39.9 |  |  |  |  |
| UUACUCAUGUAAGGAUAUGCAGCCGUUUCGGCUGCAGAAGGUACUAUAAUACAUGAGGAUCACCCAUGUCUUUUUAAUUUAGAC [JL SSNG1 1.29] (Eterna round: R96, puzzle: Same State NG 1) | 56.2 | 30.7 | 47.8 |  |  |  |
| GCCAACUCAUGAGGAUAUGGCACCUUAUUGGUGCCAGAAGGCAUGUCUAUUGACAUGAGGAUCACCCAUGUAUUAUAGUUGGCA [Fiskers NG1ss - 23] (Eterna round: R96, puzzle: Same State NG 1) | 83.9 | 192 | 859 |  |  |  |
| CUGAGCAAUCUAGGAUAUCACGUCGAUUAGACGUGAGAAGGAGAUCAUAACAUGAGGAUCACCCAUGUAUUACAUGAAGCUCAG [SSNG1/7-A2] (Eterna round: R96, puzzle: Same State NG 1) | 11.7 | 13.8 | 19.1 |  |  |  |
| GAAAAGCAGAGAGGAUAUGUCACUCAUGCCGUGACACAUGAGGAUCACCCAUGUUCAAUCCGGCCGCAGAAGGCUCCGCGAAAA [Eternabot solution 25] (Eterna round: R96, puzzle: Same State NG 2) | 8.9 | 9.13 | 10.8 |  |  |  |
